Laboratory results taken from patent publication US20120034231A1 (Novartis, published 2012).
Like-named read-outs stand apart in the source and are kept apart here. Values belong to the binder of their own block, whether it stands above or below them.

Assays:
[1] = biological target: T1, recombinant human IL12Rβ1/Fc fusion protein (human, UniProt P42701 24-545); assay: BioVeris competition; Fab titrated with IL12Rβ1/Fc, competitor rhIL-23 on beads
T1 construct: Bought from R&D Systems; Partly used biotinylated; also called rh IL12Rβ1
Procedure: (§1) For the IL12 and IL23 binding inhibition assay, 25 μg recombinant human IL12 and 20 μg IL23 (R&D Systems) were directly coupled (NHS/EDC coupling) to 250 μl carboxylic acid M-270 Dynal magnetic beads (2×109 beads/ml), 50 μl Fab antibodies per well (20 nM stock) in 1:4 dilution steps (Fab concentration: 0.6 pM-10 nM) were incubated for 2 h with 50 μl of 40-100 pM IL12Rβ1/Fc fusion in 96 well plates (Nunc). 25 μl IL12 or IL23 coated beads and 1:500 diluted Streptavidin detection antibody labeled with BV-tag™ according to instructions of supplier (BioVeris Europe) were added to each well and incubated for 1.5 h. Detection was performed by BioVeris M-384 SERIES® Workstation (BioVeris Europe). EC50 determination was performed by evaluation of the resulting data by a 4-parameter logistic fit model (XLfit, IDBS).

[2] = biological target: T1, recombinant human IL12Rβ1/Fc fusion …; assay: solution equilibrium titration (SET), BioVeris ECL, Fab
cynomolgus IL12Rβ1 [3] = biological target: T2, cynomolgus IL12Rβ1 (cynomolgus, UniProt A0A2K5VWV1 24-662); assay: FACS, 1 µg/ml Fab, HEK cells expressing cyno IL12Rβ1
T2 construct: whole, on cells; also called cyno IL12Rβ1; Cyno IL-12Rβ1
Procedure: (§2) Cells of the respective cell line (BaF3 cells stable transfected with cyno and human IL12Rβ1; HEK EBNA and Jurkat cells stable transfected with cyno IL12Rβ1) were counted and adjusted to 2×10⁷ cells/ml in PBS/3% FCS/0.02% NaN₃ (FAGS buffer). FAGS staining was performed in V-bottom 96-well microtiter plates (NUNC™, Wiesbaden, Germany) and 1×10⁵ cells per well were mixed with a) purified Fab fragments or b) purified IgG4 or c) positive control antibody (mouse anti IL12Rβ1, R&D Systems, Cat#: MAB839), diluted in FACS buffer and incubated at […] for 1 h. Cells were then washed 2× with 200 μl FACS buffer/well and taken up in 100 μl phycoerythrin-conjugated goat anti-human IgG (H+L) secondary antibody (Jackson ImmunoResearch) which has been diluted 1:200 in FACS buffer. After 45 min incubation at 4° C. cells were washed 3× with FAGS buffer, resuspended in 100 μl of FACS buffer and cell surface binding of IL12Rβ1 specific antibodies was measured via FL2 fluorescence intensity of cells in FACSCalibur™ (Becton Dickinson).

[4] = biological target: T1, recombinant human IL12Rβ1/Fc fusion …; assay: solution equilibrium titration (SET), BioVeris ECL, Fab; remark: listed apart in the source
cynomolgus IL12Rβ1 [5] = biological target: T2, cynomolgus IL12Rβ1; assay: FACS, 1 µg/ml Fab, Jurkat cells expressing cyno IL12Rβ1
Procedure: as §2

[6] = biological target: T1, recombinant human IL12Rβ1/Fc fusion …; assay: BioVeris competition; Fab titrated with IL12Rβ1/Fc, competitor rhIL-12 on beads
Procedure: as §1

human IL12Rβ1 = biological target: T3, human IL12Rβ1 (human, UniProt P42701 24-662); assay: FACS on Baf3 cells transfected with human IL12Rβ1, IgG4
T3 construct: On stably transfected Ba/F3 cells in FACS; on primary human T cells within PBMC in the functional assay; also called human IL12Rβ1 transfected Baf3 cells; Ba/F3/IL12Rβ1 expressing cells
Procedure: as §2

cynomolgus IL12Rβ1 [7] = biological target: T2, cynomolgus IL12Rβ1; assay: FACS on Baf3 cells transfected with cyno IL12Rβ1, IgG4
Procedure: as §2

human IL4Rα/Fc = biological target: T4, human IL4Rα/Fc (human, UniProt P24394 26-232, limits assumed); assay: ELISA, antigen directly coated, IgG4
T4 construct: also called rh IL4Ra/Fc
T4 sequence (looked up): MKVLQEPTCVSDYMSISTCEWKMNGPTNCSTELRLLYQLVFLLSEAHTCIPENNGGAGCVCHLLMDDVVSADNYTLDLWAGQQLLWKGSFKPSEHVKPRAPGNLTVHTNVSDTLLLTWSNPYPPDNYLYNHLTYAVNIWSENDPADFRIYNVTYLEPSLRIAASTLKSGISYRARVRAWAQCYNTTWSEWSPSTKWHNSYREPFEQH

cynomolgus IL12Rβ1 [8] = biological target: T2, cynomolgus IL12Rβ1; assay: FACS, 1 µg/ml IgG4, BaF3 cells expressing cyno IL12Rβ1
Procedure: as §2

EC50 [1]: 0.17 nM | Kd [2]: 0.059 nM | MFI (mean fluorescent intensity) (cynomolgus IL12Rβ1 [3]): 368 | Kd [4]: 0.059 nM | MFI (mean fluorescent intensity) (cynomolgus IL12Rβ1 [5]): 249 | EC50 [6]: 0.09 nM
B1: MOR05286 Fab (Fab, V domains shown)
VH: QVQLKESGPALVKPTQTLTLTCTFSGFSLSTSGMGVSWIRQPPGKALEWLALIDWTDDKYYSTSLKTRLTISKDTSKNQVVLTMTNMDPVDTATYYCARTVGKGLYRVDNWGQGTLVTVSS
VL: DIELTQPPSVSVAPGQTARISCSGDNLGSKFAYWYQQKPGQAPVLVIYDDSKRPSGIPERFSGSNSGNTATLTISGTQAEDEADYYCQSWDSSSGNDVFGGGTKLTVLG
notes: also called MOR5286

EC50 (human IL12Rβ1): 2.4 nM | EC50 (cynomolgus IL12Rβ1 [7]): 4.8 nM | binding result (human IL4Rα/Fc): no binding | MFI (mean fluorescent intensity) (cynomolgus IL12Rβ1 [8]): 271
B2: MOR05286 IgG4 (antibody, V domains shown)
VH: B1 VH
VL: B1 VL
notes: IgG4; also called MOR5286

EC50 (human IL12Rβ1): 0.9 nM | EC50 (cynomolgus IL12Rβ1 [7]): 0.931 nM | binding result (human IL4Rα/Fc): no binding | MFI (mean fluorescent intensity) (cynomolgus IL12Rβ1 [8]): 350
B3: MOR05278 IgG4 (antibody, V domains shown)
VH: QVQLVESGGGLVQPGGSLRLSCAASGFTFSSYGMSWVRQAPGKGLEWVSYIEPKLFWYATFYAASVKGRFTISRDNSKNTLYLQMNSLRAEDTAVYYCARNDFMEPAYFALWGQGTLVTVSS
VL: DIELTQPPSVSVAPGQTARISCSGDNLGSYYAYWYQQKPGQAPVGVIYDDSERPSGIPERFSGSNSGNTATLTISGTQAEDEADYYCSSYTYSKNNVFGGGTKLTVLG
notes: IgG4

EC50 [1]: 0.24 nM | Kd [2]: 0.031 nM | MFI (mean fluorescent intensity) (cynomolgus IL12Rβ1 [3]): 3 | Kd [4]: 0.031 nM | MFI (mean fluorescent intensity) (cynomolgus IL12Rβ1 [5]): 4 | EC50 [6]: 0.08 nM
B4: MOR05278 Fab (Fab, V domains shown)
VH: B3 VH
VL: B3 VL

EC50 (human IL12Rβ1): 1.2 nM | EC50 (cynomolgus IL12Rβ1 [7]): 1 nM | binding result (human IL4Rα/Fc): no binding | MFI (mean fluorescent intensity) (cynomolgus IL12Rβ1 [8]): 144
B5: MOR05281 IgG4 (antibody, V domains shown)
VH: QVQLKESGPALVKPTQTLTLTCTFSGFSLSTRGVGVSWIRQPPGKALEWLALIYWDEDKYYSTSLKTRLTISKDTSKNQVVLTMTNMDPVDTATYYCARYQSGYYYNNDGWGVDIWGQGTLVTVSS
VL: DIQMTQSPSSLSASVGDRVTITCRASQSISSWLNWYQQKPGKAPKLLIYAASSLQSGVPSRFSGSGSGTDFTLTISSLQPEDFATYYCQQYYAFPHTFGQGTKVEIKR
notes: IgG4

EC50 [1]: 0.07 nM | Kd [2]: 0.001 nM | MFI (mean fluorescent intensity) (cynomolgus IL12Rβ1 [3]): 2 | Kd [4]: 0.001 nM | MFI (mean fluorescent intensity) (cynomolgus IL12Rβ1 [5]): 2 | EC50 [6]: 0.06 nM
B6: MOR05281 Fab (Fab, V domains shown)
VH: B5 VH
VL: B5 VL

EC50 (human IL12Rβ1): 0.143 nM | EC50 (cynomolgus IL12Rβ1 [7]): 0.073 nM | binding result (human IL4Rα/Fc): no binding | MFI (mean fluorescent intensity) (cynomolgus IL12Rβ1 [8]): 134
B7: MOR05271 IgG4 (antibody, V domains shown)
VH: QVQLKESGPALVKPTQTLTLTCTFSGFSLSTSTMGVSWIRQPPGKALEWLAWIYWDDDKDYSTSLKSRLTISKDTSKNQVVLTMTNMDPVDTATYYCARANPDLGYFDYWGQGTLVTVSS
VL: DIALTQPASVSGSPGQSITISCTGTSSDLGESNYVSWYQQHPGKAPKVMIYDVNKRPSGVSNRFSGSKSGNTASLTISGLQAEDEADYYCGSYDEEDNVFGGGTKLTVLG
notes: IgG4

EC50 [1]: 0.025 nM | Kd [2]: 0.021 nM | MFI (mean fluorescent intensity) (cynomolgus IL12Rβ1 [3]): 2 | Kd [4]: 0.021 nM | MFI (mean fluorescent intensity) (cynomolgus IL12Rβ1 [5]): 3 | EC50 [6]: 0.01 nM
B8: MOR05271 Fab (Fab, V domains shown)
VH: B7 VH
VL: B7 VL
